Source: patent publication US20240101673A1 (MOZART THERAPEUTICS, published 2024)

Tests used:
[1] = target: CD8 (Homo sapiens); experiment: titration on the CXCR3 CD39 CD8 T cell subset, gMFI (flow cytometry)
[2] = target: CD8 (Homo sapiens); experiment: titration on CD8+ T cells, gMFI (flow cytometry)
[3] = target: T1, CD8alpha tagged with a hexahistidine peptide (UniProt P01732 22-182, limits assumed); experiment: BLI (Octet), CrossMAb captured on AHC anti-human Fc biosensors, analyte 6.25-200 nM
T1 construct: Soluble analyte in the Octet assays; not shown: hexahistidine tag (HHHHHH)
T1 sequence (P01732 22-182 limits assumed): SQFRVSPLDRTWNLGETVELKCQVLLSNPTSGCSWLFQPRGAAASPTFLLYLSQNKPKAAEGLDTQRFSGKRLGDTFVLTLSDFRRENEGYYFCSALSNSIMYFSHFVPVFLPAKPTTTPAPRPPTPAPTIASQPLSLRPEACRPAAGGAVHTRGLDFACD

[4] = target: T2, KIR2DL3 tagged with a hexahistidine peptide (UniProt P43628 22-245, limits assumed); experiment: as above
T2 construct: Soluble analyte in the Octet assays; not shown: hexahistidine tag (HHHHHH)
T2 sequence (P43628 22-245 limits assumed): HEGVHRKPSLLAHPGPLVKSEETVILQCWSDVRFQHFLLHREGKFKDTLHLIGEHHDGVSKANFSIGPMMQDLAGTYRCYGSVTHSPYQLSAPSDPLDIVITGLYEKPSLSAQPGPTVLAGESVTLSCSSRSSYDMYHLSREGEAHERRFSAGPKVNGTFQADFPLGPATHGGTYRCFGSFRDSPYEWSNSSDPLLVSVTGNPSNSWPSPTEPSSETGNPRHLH

[5] = target: T3, KIR2DL1 tagged with a hexahistidine peptide (UniProt P43626 22-245, limits assumed); experiment: as above
T3 construct: Soluble analyte in the Octet assays; also called KIRDL1; not shown: hexahistidine tag (HHHHHH)
T3 sequence (P43626 22-245 limits assumed): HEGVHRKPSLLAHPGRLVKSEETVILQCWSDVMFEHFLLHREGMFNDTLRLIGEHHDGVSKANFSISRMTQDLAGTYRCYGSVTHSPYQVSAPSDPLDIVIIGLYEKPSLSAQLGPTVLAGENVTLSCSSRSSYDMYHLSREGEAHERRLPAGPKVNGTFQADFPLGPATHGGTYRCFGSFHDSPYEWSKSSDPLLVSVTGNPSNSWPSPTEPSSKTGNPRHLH

[6] = target: T1, CD8alpha tagged with a hexahistidine …; experiment: BLI (Octet), antibody captured on AHC anti-human Fc biosensors, analyte 6.25-200 nM
Method: The affinities of the parental antibodies anti-KIR2DL1/L2/L3 IPH2102 IgG1 r mAb and anti-CD8alpha Mb1 b IgG1r mAb were also analyzed. For kinetic analysis, the parental antibodies were separately captured to AHC (anti-human Fc) biosensors using a load concentration of 1.25 ug/ml. For IPH2102 IgG1r mAb, the KIR2DL1, or KIR2DL3 analytes ranged from 6.25 nM to 200 nM. Analyte binding following capture was analyzed first for association of KIR2DL1 or KIR2DL3 followed by the dissociation of each analyte independently. Likewise, for the Mb1b IgG1r mAb, the CD8alpha analyte ranged from 6.25 nM to 200 nM. Analyte binding following capture was analyzed first for association followed by the dissociation of CD8alpha.

CD8 (Homo sapiens), sequence (chain, as listed by the source): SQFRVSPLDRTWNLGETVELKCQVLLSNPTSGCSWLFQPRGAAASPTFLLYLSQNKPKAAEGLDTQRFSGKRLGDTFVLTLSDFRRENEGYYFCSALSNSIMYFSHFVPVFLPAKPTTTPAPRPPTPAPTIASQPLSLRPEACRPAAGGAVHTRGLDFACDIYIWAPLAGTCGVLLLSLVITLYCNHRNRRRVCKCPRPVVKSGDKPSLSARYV

B1: KIR2DLxCD8 bispecific (bispecific antibody)
chain 1: QVQLVQSGAEVKKPGSSVKVSCKASGGTFSFYAISWVRQAPGQGLEWMGGFIPIFGAANYAQKFQGRVTITADESTSTAYMELSSLRSDDTAVYYCARIPSGSYYYDYDMDVWGQGTTVTVSS
chain 2: EIVLTQSPVTLSLSPGERATLSCRASQSVSSYLAWYQQKPGQAPRLLIYDASNRATGIPARFSGSGSGTDFTLTISSLEPEDFAVYYCQQRSNWMYTFGQGTKLEIK
chain 3: EVQLVESGGGLVQPGGSLRLSCAASGFNIKDTYIHFVRQAPGKGLEWIGRIDPANDNTLYASKFQGKATISADTSKNTAYLQMNSLRAEDTAVYYCGRGYGYYVFDHWGQGTLVTVSS
chain 4: DVQITQSPSSLSASVGDRVTITCRTSRSISQYLAWYQQKPGKVPKLLIYSGSTLQSGVPSRFSGSGSGTDFTLTISSLQPEDVATYYCQQHNENPLTFGGGTKVEIK
[1]
  EC50 (read off the curve): ~100 nM
[2]
  EC50 (read off the curve): ~40 nM

B2: IPH2102/Mb1b CrossMAb (bispecific antibody)
chain 1: B1 chain 1
chain 2: B1 chain 2
chain 3: B1 chain 3
chain 4: B1 chain 4
[3]
  Kd: 2.07 nM
[4]
  Kd: 0.88 nM
[5]
  Kd: 1.52 nM

B3: Mb1b IgG1 r mAb (antibody, V domains shown)
VH: B1 chain 3
VL: B1 chain 4
notes: also called Mb1b parental antibody; anti-CD8alpha Mb1 b IgG1r mAb
[6]
  Kd: 2.6 nM
